Square brackets hold non-standard residues; d marks the D form. Primed or numbered codes have the meaning given here. Ends that are not written are not given here. PEG12″ = polyethylene glycol with 12 units (PEG-12)
T1: Apelin Receptor (APJ) stably overexpressed in CHO-K1 AGTRL1 Gi cells (UniProt P35414 1-380, limits assumed)
T1 sequence (looked up): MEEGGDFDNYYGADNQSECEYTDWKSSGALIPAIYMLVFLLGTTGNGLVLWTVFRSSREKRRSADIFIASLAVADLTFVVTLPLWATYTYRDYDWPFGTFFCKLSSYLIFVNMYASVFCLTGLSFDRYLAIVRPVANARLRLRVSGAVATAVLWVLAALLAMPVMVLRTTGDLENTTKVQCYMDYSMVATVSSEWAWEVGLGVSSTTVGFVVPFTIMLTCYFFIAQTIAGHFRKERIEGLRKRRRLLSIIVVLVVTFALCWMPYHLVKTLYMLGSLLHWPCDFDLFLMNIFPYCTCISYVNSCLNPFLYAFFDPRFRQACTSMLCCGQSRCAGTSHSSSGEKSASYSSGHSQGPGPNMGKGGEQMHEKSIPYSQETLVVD


Columns and labels:
[1] = molecular target: ProLink tagged human APJ (Apelin Receptor) in CHO-K1 AGTRL1 β-Arrestin cells (human, UniProt P35414 1-380); assay: cell-based or functional assay
[2] = molecular target: T1, Apelin Receptor (APJ) stably …; assay: cell-based or functional assay

| Binder | β-Arrestin recruitment, Percent of Apelin-13 Control Activity (10 µM peptide) [1] | inhibition of forskolin-induced cAMP, Percent of Pyr-Apelin-13 Control Activity (10 µM peptide) [2] |
| --- | --- | --- |
| KRRMMGMVFQCLCGA ((PEG12) at the N-terminal K; C-terminal (dA) = D-alanine) [SEQ ID NO: 20] | 1% | 37% |
| RMMGMVFQS [SEQ ID NO: 52] | 0% | 15% |
| MMGMV [SEQ ID NO: 44] | 0% | 5% |
| RRMMGMVFQSLCG[dA]-NH2 [SEQ ID NO: 62] | 2% | 27% |
| RMMGMVFQSL [SEQ ID NO: 53] | 1% | 6% |
| Ac-RRMMGMVFQSLCG[dA] [SEQ ID NO: 61] | 5% | 1% |
| Ac-RRMMGMVFQSLCG[dA]-NH2 [SEQ ID NO: 63] | 9% | 21% |
| RRMVYQCLEG[dA] [SEQ ID NO: 24] | -1% | 16% |
| RMMGMVFQSLCG[dA] [SEQ ID NO: 54] | 1% | 20% |
| RRMEVYQCLCG[dA] (cysteine pairing not given here; also: places D-Ala at position 13) [SEQ ID NO: 31] | 0% | 2% |
| RRMMGMVFQSLEG[dA] [SEQ ID NO: 39] | 0% | -13% |
| RRMMGMVFQ [SEQ ID NO: 58] | 0% | 5% |
| RRMMGMVFQSLSG[dA] [SEQ ID NO: 17] | 10% | 26% |
| RREMVYQCLEG[dA] [SEQ ID NO: 26] | 0% | 29% |
| RRLLGLVFQSLEG[dA] [SEQ ID NO: 41] | 0% | 15% |
| RRMMGM [SEQ ID NO: 55] | 1% | -7% |
| RRMMGMVFQCLSG[dA] [SEQ ID NO: 16] | 0% | – |
| MMGMVF [SEQ ID NO: 45] | 0% | 10% |
| RRMMGMVFQCLCG[dA]K(PEG12″) (cysteine pairing not given here) [SEQ ID NO: 21] | 1% | 34% |
| RRLLGLVEQSLCG[dA] [SEQ ID NO: 40] | 0% | 19% |

| Binder | β-Arrestin recruitment, Percent of Apelin-13 Control Activity (10 µM peptide) [1] | inhibition of forskolin-induced cAMP, Percent of Pyr-Apelin-13 Control Activity (10 µM peptide) [2] |
| --- | --- | --- |
| RXLLGLVFQSLCGA ((Aib) = aminoisobutyric acid at position 2; C-terminal (dA) = D-alanine) [SEQ ID NO: 35] | 17% | 8% |
| RXMMGMVFQSLCGA ((Aib) = aminoisobutyric acid at position 2; C-terminal (dA) = D-alanine) [SEQ ID NO: 34] | 8% | 61% |
| RRMMGMVAQCLEG[dA] [SEQ ID NO: 30] | -1% | 31% |
| RRMVFQCLCG[dA] (cysteine pairing not given here) [SEQ ID NO: 19] | 1% | 27% |
| RRMMGMVFQSL [SEQ ID NO: 60] | 0% | 16% |
| RRMVFQCLEG[dA] [SEQ ID NO: 23] | 0% | -4% |
| RRMAYQCLEG[dA] [SEQ ID NO: 27] | -1% | 9% |
| RRMMGMVYQCLCG[dA] (cysteine pairing not given here) [SEQ ID NO: 10] | 3% | 70% |
| RRXXGXVFQCLCGA ((Nle) = norleucine at positions 3, 4 and 6; C-terminal (dA) = D-alanine) [SEQ ID NO: 18] | 1% | 30% |
| RRMMGMVF [SEQ ID NO: 57] | 0% | -1% |
| RRMVYQCLCG[dA] (cysteine pairing not given here) [SEQ ID NO: 22] | 0% | 62% |
| RREMVYQCLCG[dA] (cysteine pairing not given here) [SEQ ID NO: 25] | -1% | 3% |
| RRMEVYQCLEG[dA] [SEQ ID NO: 32] | 0% | 4% |
| RRLLGLVFQSLCG[dA] [SEQ ID NO: 33] | 9% | 27% |
| RRMMGMVEQSLCG[dA] [SEQ ID NO: 38] | 0% | 12% |
| RRMGYQCLEG[dA] [SEQ ID NO: 28] | -1% | 3% |
| RRMMGMVYQCLEG[dA] [SEQ ID NO: 29] | 0% | 21% |
| RRMMGMVFQS [SEQ ID NO: 59] | 0% | -2% |
| RRMMGMV [SEQ ID NO: 56] | 0% | -2% |
| RRMMGMVFQCLCG[dA] (cysteine pairing not given here) [SEQ ID NO: 8] | 17% | 64% |

From patent US20230218710A1 (COHBAR, published 2023)
